Results: article PMC12429950, “A chimeric RNA consisting of siRNA and aptamer for inhibiting dengue virus replication”

B1: DENV-Apt (XNA)
RNA: GGGUCUUGUUUCUUCUCUGUGUGUAAUUUGUUUUACUGGGGGGUUAACCUAACAAGUGCACACUCGUCACACACUCACAUC
modifications: 2'-fluoro C and U

Experiments:
[1] = target: T1, DENV-1 VLP (envelope protein) (Dengue virus type 1, UniProt P17763 281-775); experiment: SPR; response lower than DENV-Apt_41; conditions: protein: commercial; predicted stem-loop
[2] = target: T1, DENV-1 VLP (envelope protein); experiment: SPR; conditions: protein: commercial; predicted stem-loop

T1 sequence (P17763 281-775): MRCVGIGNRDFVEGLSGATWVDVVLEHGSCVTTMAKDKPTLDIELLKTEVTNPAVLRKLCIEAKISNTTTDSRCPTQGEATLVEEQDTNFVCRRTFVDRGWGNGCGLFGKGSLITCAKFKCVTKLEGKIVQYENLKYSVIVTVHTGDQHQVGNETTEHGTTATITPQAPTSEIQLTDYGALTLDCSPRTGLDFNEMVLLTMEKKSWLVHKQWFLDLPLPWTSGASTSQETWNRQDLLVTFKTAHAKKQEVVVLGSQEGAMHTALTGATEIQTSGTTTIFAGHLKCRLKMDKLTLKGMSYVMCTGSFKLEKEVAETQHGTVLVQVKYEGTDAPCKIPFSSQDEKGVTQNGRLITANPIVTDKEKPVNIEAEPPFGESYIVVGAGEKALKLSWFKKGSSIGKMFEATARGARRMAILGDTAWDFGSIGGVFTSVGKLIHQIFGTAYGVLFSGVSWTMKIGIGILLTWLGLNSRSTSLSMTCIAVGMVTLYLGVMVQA

Row | Binder | binding result [1] | binding result [2]
1 | B1 | binds | –
2 | GGGUAAUUUGUUUUACUGGGGGGUUAACCUAACAAGUGCCC (XNA, 2'-fluoro C and U) [DENV-Apt_41] | – | binds
